Measurements published in publication PMC4195687, “Computational and Experimental Characterization of dVHL Establish a Drosophila Model of VHL Syndrome” (PLoS ONE, 2014).
Where no end group is shown, it is not given here. [ ]: non-standard residue; d: D form. Hyp = O=C(O)[C@@H]1C[C@@H](O)CN1

Tests used:
[1] = target: T1, human von Hippel-Lindau tumor suppressor protein pVHL (19 kDa) (human, UniProt P40337-3 1-160); assay: ELISA; ELISA-based binding assay: pVHL or dVHL (10 µg/ml, 500 nM, in 10 mM Tris-HCl pH 8, 200 mM NaCl, 200 mM GnHCl) coated on the plate overnight at 4°C, blocked with 5% BSA; TAMRA-labelled peptide at increasing concentrations, 1 h at 25°C; fluorescence at 580 nm, after subtraction of the BSA control; settings: both partners purified
T1 construct: numbers count on: the 30 kDa isoform (Y98, W117 and so on)

[2] = target: T2, Drosophila von Hippel-Lindau protein dVHL (Drosophila melanogaster, UniProt Q9V3C1 1-178); assay: as above; settings: both partners purified
T2 construct: Drosophila melanogaster VHL (dVHL), ORF re-engineered to E. coli codon usage, cloned in pET14b (NdeI/XhoI); migrated as a 19 kDa protein; also called Drosophila VHL
T2 sequence (looked up): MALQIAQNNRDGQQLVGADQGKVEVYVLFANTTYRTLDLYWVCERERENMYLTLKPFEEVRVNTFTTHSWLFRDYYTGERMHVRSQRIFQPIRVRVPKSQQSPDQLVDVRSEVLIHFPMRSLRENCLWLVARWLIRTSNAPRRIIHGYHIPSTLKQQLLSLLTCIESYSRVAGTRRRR

T1 sequence (P40337 54-213): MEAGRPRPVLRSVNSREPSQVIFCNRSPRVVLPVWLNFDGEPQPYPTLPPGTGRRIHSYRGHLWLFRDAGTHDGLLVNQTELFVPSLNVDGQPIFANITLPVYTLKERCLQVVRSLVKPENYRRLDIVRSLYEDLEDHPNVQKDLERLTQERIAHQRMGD

B1: Hyp850-ODD-SIMA peptide (SIMA residues 841-857, hydroxyproline 850, TAMRA-labelled) (peptide)
peptide: SFEAFAGRA[Hyp]YIPIDDD
modifications: also: TAMRA label, position not given here
notes: Drosophila SIMA (fly homolog of HIF1-α), residues 841-857 of its ODD; The peptide has two prolines (P850 and P853); by its name the hydroxylated one is P850; also called SIMA-derived peptide; source: synthetic peptide (Hy Laboratory Ltd, Israel)
fold stronger binding than to dVHL [1]: ~1.5 fold | binding result [2]: binds

B2: Hyp402-ODD-HIF peptide (HIF1-α residues 395-413, hydroxyproline 402, TAMRA-labelled) (peptide)
peptide: DALTLLA[Hyp]AAGDTIISLDF
modifications: also: TAMRA label, position not given here
notes: human HIF1-α, residues 395-413 of the oxygen dependent degradation domain; also called HIF1-α P402; HIF1-α-derived peptide; source: synthetic peptide (Hy Laboratory Ltd, Israel)
fold stronger binding than to dVHL [1]: ~1.5 fold | binding result [2]: binds
